The values that follow come from article PMC7331920.

One experiment has as its target JADE1 PHD finger 1. Nature of the experiment: fluorescence polarisation. For orientation: Fluorescence polarisation rises when a labelled molecule tumbles more slowly, as on binding a larger partner.
Experiment [1] addresses PHF14 PHD finger 1 (GST-fusion protein). Nature of the experiment: fluorescence polarisation.

By Kd is commonly meant a measure of binding affinity in units of concentration. A low value points to tighter binding. Turning to “H3K4me0 peptide (unmodified / wild-type H3 tail peptide)”, the Kd turned out to be 32 µM with JADE1 PHD finger 1 and 7 µM in experiment [1].

Regarding H3K4me3 peptide, the Kd with JADE1 PHD finger 1 was over 100 µM.

In the case of H3K4norleucine peptide, the Kd with JADE1 PHD finger 1 is over 100 µM.
